Laboratory results from US20220119472A1 (ORIONIS BIOSCIENCES, published 2022).

T1: recombinant His6-tagged extracellular domain of human Clec4C (C-type lectin domain family 4, member C) (human, UniProt Q8WTT0 44-213)
T1 construct: Same antigen for immunisation, panning and ELISA; also called His-Clec4C(EC); pMET7-SIgK-His-Clec4C(EC)
T1 sequence: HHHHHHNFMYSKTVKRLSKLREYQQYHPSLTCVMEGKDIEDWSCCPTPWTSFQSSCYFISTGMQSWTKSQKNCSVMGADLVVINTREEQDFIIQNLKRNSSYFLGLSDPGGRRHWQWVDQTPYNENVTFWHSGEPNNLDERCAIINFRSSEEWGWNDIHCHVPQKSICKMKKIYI

B1: 2CL40 (VHH)
VHH: QVQLQESGGGLVQTGGSLRVSCAASGRSISNYNMGWFRQPPGKEREIVGSIRWDGDSTYYADSVKGRFTISRDNTKNTVYLQMNSLKSEDTADYYCAATVSSFDESKNPRWYPYWGQGTQVTVSS
notes: pMECS VHH-HA-His6; TG1 periplasmic extract
B2: 2CL81 (VHH)
VHH: QVQLQESGGGLVQAGDSLKLSCAASGRTFSTYAMGWFRQAPGKERDVVAAIATNGGTTYYVDSVKGRFTISRDNAQNRVYLQMNSLKPEDTAIYYCAARLSFGSGYYTNKLNYAYWGQGTQVTVSS
notes: as for B1
B3: 1CL81 (VHH)
VHH: QVQLQESGGGLVQAGNSLKLSCAASGRNLAYYVMGWFRQAPGREREPVATLTRGGDDTYCADSVKGRFTISSDNAKNTVYLQMNNLKPEDTAIYTCAARLAVLSSNTYCSGLWDYWGQGTQVTVSS
notes: as for B1
B4: 2CL46 (VHH)
VHH: QVQLQESGGGLVQAGGSLRLSCAVSGRTFSSYAMGWFRQARGKEREFVAAVEWSSGSTFYTDSVKGRFAISRDIAKNTVYLQMNSLKPEDTAVYYCAGDHTGKLVFSKTSDYWGQGTQVTVSS
notes: as for B1
B5: 2CL65 (VHH)
VHH: QVQLQESGGGLVQPGGSLRLSCAASGRIFSINAMGWYRQAPGKQRELVAVISRSGISNYVDSVKGRFTISRDNAKNTVYLQMNSLNPEDTADYYCNADVLLTFNKREDSWGQGTQVTVSS
notes: as for B1
B6: 1CL88 (VHH)
VHH: QVQLQESGGGLVQAGGSLRLSCAASGRIFSNSAMGWFRQVLGKEREFVAAISENSSILYYTASVKGRFTISRDNDKNTVYLQMTSLKAEDTAVYYCAGYGSTTIRTTTRPTKWGQGTQVTVSS
notes: as for B1
B7: 2CL66 (VHH)
VHH: QVQLQESGGGLVQAGGSLRLSCAASERTFTNYAMGWFRQGPGKDRAFVAAISRSGSSTSYADSVKGRFTISRDNAENILYLQMNSLKPEDTAVYYCAAAPLVLKTTPGAYNYWGQGTQVTVSS
notes: as for B1
B8: 2CL29 (VHH)
VHH: QVQLQESGGGLVQPGDSLRLSCTASERTFTNYAMAWFRQAPGKERDVLATISRSGSSTFYAESVKGRFTISRDNTKNTVYLQMNSLEPEDTAVYYCAARPLVPSEDPDNYNYWGQGTQVTVSS
notes: as for B1
B9: 2CL56 (VHH)
VHH: QVQLQESGGGSVQAGDSLTLSCIASGRTFSSLAMGWFRQAPGKEREFVAAINWSGDSTYYSDSMKGRLTMSRDNAKNTVFLQMNSLEPEDTAVYVCAADASGYGSAWPDRYDYWGQGTQVTVSS
notes: as for B1
B10: 2CL34 (VHH)
VHH: QVQLQESGGGLVQAGGSLRLSCAASGRTFTNYAMGWFRQAPGKEREFVATISRSGSMPYYADSVKGRFTISRDNAKNMVYLQMNSLKPEDTAVYYCAANVLVTTTRLDQYDSWGQGTQVTVSS
notes: as for B1
B11: 1CL56 (VHH)
VHH: QVQLQESGGGLVQPGGSLTLSCGASGFDFSDYVMYWLRQAPGKGLQWVSSINASGVRTYYVDALKGRFTISRDNAKNTLYLQIDDLKPEDTGLYYCARVGQAPMYFGVDFWGNGTQVTVSS
notes: as for B1
B12: 2CL57 (VHH)
VHH: QVQLQESGGGLVQAGGSLKLSCAASGRTFSSYAMGWFRQAPGKERDFVAVISWRNNTYYADSVKGRFTISRDNAKNTVHLQMNSLKSEDTAVYYCAAAGLGAVVAGMSDYDYWGQGTQVTVSS
notes: as for B1
B13: 2CL15 (VHH)
VHH: QVQLQESGGGLVQPGGSVRLSCAASVFTLNNFIMSWVRQAPGKGLERVSDINMVGITDYSDPVKGRFTISRDNKQNTVYLQGNTLKPEDTAVYFCAAGRPIGLYYPSPRIRDYNDWGQGTQVTVSS
notes: as for B1

Target: T1, recombinant His6-tagged extracellular …
Assay: ELISA, antigen-coated vs uncoated blocked wells
Text: (§1) In total, 190 colonies from rounds 1 and 2 were randomly selected and analyzed by ELISA for the presence of antigen-specific VHH in their periplasmic extracts (ELISA using crude periplasmic extracts from TG1 cultures including soluble VHH). The antigen used for ELISA screening was the same as the one used for immunization, using uncoated blocked wells as negative control.

ELISA ratio coated/uncoated | Binder
13.3 | B1
8.32 | B2
4.72 | B3
4.82 | B4
9.33 | B5
3.42 | B6
18.6 | B7
6.84 | B8
4.72 | B9
3.83 | B10
4.82 | B11
4.38 | B12
12.8 | B13

Target: T1, recombinant His6-tagged extracellular …
Assay: ELISA, TG1 periplasmic extract on coated antigen
Text: as §1

ELISA coated | Binder
3.11 | B1
3.69 | B2
1.12 | B3
3.3 | B4
1.72 | B5
4 | B6
2.04 | B7
2.24 | B8
0.999 | B9
2.8 | B10
3.89 | B11
0.922 | B12
3.9 | B13
